Experimental data: US20210388105A1 (ELPISCIENCE SUZHOU BIOPHARMA, published 2021)
Numbering of substitutions follows the chain as printed.

T1: KW27-13 (human CD39 mutant, C-terminal EGFP) (human, UniProt P49961 1-510)
T1 construct: expressed on HEK293F cells; not shown: C-terminal EGFP fusion (vector pCMV3-GFPSpark)
T1 chain: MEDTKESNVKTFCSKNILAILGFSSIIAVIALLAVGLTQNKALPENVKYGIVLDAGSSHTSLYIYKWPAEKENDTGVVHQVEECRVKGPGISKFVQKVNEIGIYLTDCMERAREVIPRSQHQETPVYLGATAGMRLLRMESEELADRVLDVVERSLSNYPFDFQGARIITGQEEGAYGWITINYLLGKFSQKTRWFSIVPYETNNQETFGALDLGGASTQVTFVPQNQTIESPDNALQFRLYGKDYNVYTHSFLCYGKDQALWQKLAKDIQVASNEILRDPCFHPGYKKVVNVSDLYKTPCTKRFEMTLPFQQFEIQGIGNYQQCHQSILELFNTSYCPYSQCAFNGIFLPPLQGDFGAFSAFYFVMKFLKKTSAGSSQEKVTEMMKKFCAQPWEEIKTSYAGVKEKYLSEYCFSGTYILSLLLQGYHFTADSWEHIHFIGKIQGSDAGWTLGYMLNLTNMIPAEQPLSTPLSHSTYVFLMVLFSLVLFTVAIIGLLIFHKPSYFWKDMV

T2: KW27-15 (human CD39 mutant, C-terminal EGFP) (human, UniProt P49961 1-510)
T2 construct: expressed on HEK293F cells; not shown: C-terminal EGFP fusion (vector pCMV3-GFPSpark)
T2 chain: T1 chain with K371N, K372L, A375E, G376K, S377V, A402P, G403A, K405A, E406A

T3: KW27-11 (human CD39 mutant, C-terminal EGFP) (human, UniProt P49961 1-510)
T3 construct: expressed on HEK293F cells; 'D3565' as printed is read as D356S; not shown: C-terminal EGFP fusion (vector pCMV3-GFPSpark)
T3 chain: T1 chain with Q354A, D356S, K371N, K372L, A375E, G376K, S377V, E435A, H436Q

T4: KW27-5 (human CD39 mutant, C-terminal EGFP) (human, UniProt P49961 1-510)
T4 construct: expressed on HEK293F cells; not shown: C-terminal EGFP fusion (vector pCMV3-GFPSpark)
T4 chain: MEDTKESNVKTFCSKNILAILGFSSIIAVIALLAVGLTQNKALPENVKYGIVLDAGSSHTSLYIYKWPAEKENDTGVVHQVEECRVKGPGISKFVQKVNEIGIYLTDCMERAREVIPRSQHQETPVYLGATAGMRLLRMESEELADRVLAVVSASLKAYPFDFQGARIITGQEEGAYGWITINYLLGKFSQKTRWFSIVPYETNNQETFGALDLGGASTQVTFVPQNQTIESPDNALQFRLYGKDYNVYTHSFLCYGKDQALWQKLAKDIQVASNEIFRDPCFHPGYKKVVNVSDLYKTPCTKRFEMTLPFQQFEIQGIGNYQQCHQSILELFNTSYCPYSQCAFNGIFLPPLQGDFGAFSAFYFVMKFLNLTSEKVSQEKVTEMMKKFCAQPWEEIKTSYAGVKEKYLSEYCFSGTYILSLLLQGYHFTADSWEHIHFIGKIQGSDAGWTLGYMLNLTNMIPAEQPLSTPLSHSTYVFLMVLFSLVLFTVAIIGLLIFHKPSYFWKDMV

B1: hu23.H5L5 (antibody, V domains shown)
VH: QVQLVQSGAEVKKPGASVKVSCKASGYNLKDTFLHWVRQAPGQGLEWMGRIDPANGNIKYDPKFQGRVTITADTSANTAYMELISLRSEDTAVYYCANSPYYYGSGYRIFDVWGQGTTVTVSS
VL: QIVLTQSPATLSLSPGERATLSCSAFSSVNYMHWYQQKPGQAPRLLIYTTSNLASGIPTRFSGSGSGTSYTLTISSLEPEDFAVYYCQQRSTYPFTFGQGTKLEIK
notes: humanized c23
B2: c34 (antibody, V domains shown)
VH: EIQVQQSGPELVKPGASVKVSCKASGYSFTDYNMYWVKQSHGKSLEWIGFIDPYNGYTSYNQKFKGKATLTIDKSSSTAFMHLNSLTSEDSAVYYCAIYGYDDAYYFDYWGQGTTLTVSS
VL: QIVLTQSPAIMSASPGEKVTITCSATSSVSYMHWFRQKPGTSPKLWIYSTSNLASGVPARFSGSGSGTSYSLTISRMAAEDAATYYCQQRITYPFTFGSGTKLEIT
notes: its making is not described; also called chimeric antibody c34
B3: Antibody T895 (antibody, V domains shown)
VH: EVQLQQSGPELVKPGASVKMSCKASGYTFTDYNMHWVKQSHGRTLEWIGYIVPLNGGSTFNQKFKGRATLTVNTSSRTAYMELRSLTSEDSAAYYCARGGTRFAYWGQGTLVTVSA
VL: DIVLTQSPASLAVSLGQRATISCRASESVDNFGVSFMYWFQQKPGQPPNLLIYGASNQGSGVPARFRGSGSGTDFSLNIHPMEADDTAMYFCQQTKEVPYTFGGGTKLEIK
notes: also called 31895
B4: Antibody 9-8B (antibody, V domains shown)
VH: QIQLVQSGPELKKPGETVKISCKASGYTFTHYGMNWVKQAPGKGLKWMGWINTYTGELTYADDFKGRFAFSLETSASTAYLQINNLKNEDTATYFCARRAYYRYDYVMDYWGQGTSVTVSS
VL: DIVMTQSQKFMSTSVGDRVSVTCKASHNVGTNVAWYQQKPGQSPKALIYSASYRYSGVPGRFTGSGSGTDFTLTISNVQSEDLAEYFCHQYNNYPYTFGGGTKLEIK
B5: c35 (antibody, V domains shown)
VH: EVRLQQSGAELVKPGASVKLSCTASGFNIEDTYVHWMKQRPEQGLEWIGRIDPAIDNSKYDPKFQGKATITAVSSSNTAYLQLSSLTSEDTAVYYCALYDGYNVYAMDYWGQGTSVTVSS
VL: DIVMTQAAFSNPVTLGTSASISCRSSKNLLHSNGITYLYWYLQRPGQSPQLLIYRASTLASGVPNRFSGSESGTDFTLRISRVEAEDVGVYYCAQLLELPHTFGGGTKLEIK
notes: its making is not described; also called chimeric antibody c35

Molecular target: T1, KW27-13 (human CD39 mutant, C-terminal …)
Assay: FACS, mutant-EGFP on HEK293F cells
In short: (§1)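 HEK293F cells were transfected with human CD39 mutants carrying C-terminal GFP and used 3 days later. Antibodies were titrated from 100 nM (3-fold, 11 points) and detected by FACS with AlexaFluor647 anti-hIgG. Relative binding was AlexaFluor647 intensity divided by GFP intensity.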

Row | binding result | Binder
1 | binds | B1
2 | binds | B2
3 | binds | B3
4 | binds | B4
5 | binds | B5

Molecular target: T2, KW27-15 (human CD39 mutant, C-terminal …)
Assay: FACS, mutant-EGFP on HEK293F cells
In short: as §1

Row | binding result | Binder
6 | binds | B1
7 | binds | B2
8 | binds | B3
9 | binds | B4
10 | binds | B5

Molecular target: T3, KW27-11 (human CD39 mutant, C-terminal …)
Assay: FACS, mutant-EGFP on HEK293F cells
In short: as §1

Row | binding result | Binder
11 | binds | B1
12 | binds | B2
13 | binds | B3
14 | binds | B4
15 | binds | B5

Molecular target: T4, KW27-5 (human CD39 mutant, C-terminal …)
Assay: FACS, mutant-EGFP on HEK293F cells
In short: as §1

Row | binding result | Binder
16 | binds | B1
17 | binds | B2
18 | binds | B3
19 | binds | B4
20 | binds | B5
